B1: WDFY2 (parent)
chain: FWNFKQMWDSKKIGLRQHHCRKCG
B2: ZNF449 (parent)
chain: YRHQRLHTGERPYECTVCKKRFTR

Variants of: B1
Assay: protein stability index of a GFP-peptide fusion (GPS, HEK-293T) (PSI 1-6); higher = more stable
Conditions: c terminus: a fixed tail appended
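Further: lentivirally expressed fusions sorted by FACS into six bins by GFP to DsRed ratio, PSI derived from sequencing read proportions per bin multiplied by bin number.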

Protein stability index of substitutions, site by site:
K22: E 1.65 | G 1.65 | H 1.23 | I 4.49 | L 1.47 | M 1.8 | N 1.57 | Q 2.21 | S 2.72 | T 2.87 | V 1.7 | Y 1.78
C23: A 1.78 | D 1.89 | F 2.17 | G 2.14 | H 2.24 | I 2.48 | K 2.38 | L 2.01 | M 1.94 | N 2.21 | P 2.16 | R 1.79 | S 1.78 | T 2.44 | V 1.79 | W 2.45 | Y 1.92
G24: A 1.58 | C 2.4 | D 2.09 | E 2.13 | F 1.23 | H 1.71 | I 1.51 | K 1.98 | L 1.43 | M 2.38 | N 1.67 | P 2.03 | Q 1.95 | R 2.3 | S 2.39 | T 2.7 | V 3.27 | W 1.68 | Y 2.73

Variants of: B2
Assay: as above
Conditions: c terminus: a fixed tail appended

Protein stability index: each site, then its substitutions
Y1: A 3.22 | C 3.93 | D 2.58 | E 3.16 | F 1.65 | G 2.21 | H 2.98 | I 2.55 | K 2.77 | L 2.83 | M 2.92 | N 2.35 | P 2.7 | Q 2.88 | R 3.05 | S 3.05 | T 2.65 | V 2.45 | W 1.97
R2: A 1.81 | C 2.66 | D 2.48 | E 2.65 | F 1.88 | G 2.92 | I 2.65 | K 2.32 | L 2.16 | M 2.33 | N 1.56 | P 1.63 | Q 2.12 | S 2.76 | T 1.8 | V 3.09 | W 1.57 | Y 2.38
H3: A 1.89 | C 2.4 | D 2.15 | E 1.83 | F 1.66 | G 2.28 | I 2.12 | K 2.05 | L 1.52 | M 2.14 | N 2.69 | P 2.68 | Q 2.21 | R 2.44 | S 2.35 | T 2.56 | V 2.03 | W 1.65 | Y 1.81
Q4: A 2.44 | C 2.99 | D 2.22 | E 2.3 | F 1.88 | G 2.34 | H 3.41 | I 1.93 | K 2.39 | L 1.78 | M 1.73 | N 2.24 | P 2.03 | R 2.36 | S 2.35 | T 2.64 | V 2.13 | W 2.11 | Y 1.78
R5: A 2.08 | C 3.51 | D 2.06 | E 1.91 | F 2.49 | G 2.31 | H 3 | I 1.89 | K 2.18 | L 2.15 | M 2.25 | N 2.21 | P 2.08 | Q 2.61 | S 2.24 | T 1.69 | V 2.19 | W 2.29 | Y 2.2
L6: A 2.77 | C 3.06 | D 2.37 | E 2.09 | F 2.17 | G 2.61 | H 2.73 | I 2.37 | K 2.34 | M 2.37 | N 2.63 | P 2.4 | Q 2.38 | R 2.7 | S 2.38 | T 2.51 | V 2.17 | W 2.38 | Y 2.74
H7: A 2.17 | C 2.65 | D 1.92 | E 2.09 | F 1.46 | G 2.14 | I 2.16 | K 2.75 | L 2.15 | M 1.97 | N 2.64 | P 1.84 | Q 2.53 | R 2.24 | S 2.05 | T 2.35 | V 2.18 | W 3.01 | Y 1.61
T8: A 2.32 | C 2.4 | D 2.27 | E 2.24 | F 2.31 | G 2.38 | H 2.7 | I 2.41 | K 2.19 | L 1.97 | M 2.83 | N 2.56 | P 2.52 | Q 2.59 | R 2.87 | S 2.71 | V 2.29 | W 2.39 | Y 2.22
G9: A 2.26 | C 3.86 | D 2.35 | E 2.31 | F 2.01 | H 2.81 | I 2.4 | K 2.42 | L 2.21 | M 2.25 | N 2.54 | P 2.04 | Q 2.1 | R 2.45 | S 2.33 | T 2.23 | V 2.07 | W 1.91 | Y 2.1
E10: A 2.38 | C 2.57 | D 2.28 | F 2.35 | G 2.24 | H 2.88 | I 2.32 | K 2.15 | L 2.13 | M 1.91 | N 2.6 | P 2.58 | Q 2.54 | R 2.81 | S 2.62 | T 2.48 | V 2.4 | W 2.34 | Y 3.09
R11: A 2.26 | C 3.21 | D 2.67 | E 2.08 | F 2.68 | G 2.71 | H 2.43 | I 2.22 | K 2.59 | L 2.09 | M 1.79 | N 2.1 | P 2.33 | Q 2.48 | S 2.43 | T 2.1 | V 1.85 | W 2.2 | Y 2.76
P12: A 2.54 | C 2.37 | D 2.83 | E 2.38 | F 2.19 | G 2.21 | H 2.26 | I 2.1 | K 2.62 | L 2.22 | M 2.32 | N 2.71 | Q 2.2 | R 2.98 | S 2.34 | T 2.88 | V 2.87 | W 2.44 | Y 2.62
Y13: A 2.43 | C 3.74 | D 2.11 | E 2.63 | F 2.86 | G 2.55 | H 2.69 | I 2.09 | K 2.25 | L 2.08 | M 2.69 | N 2.04 | P 2.35 | Q 2.67 | R 2.32 | S 2.08 | T 2.51 | V 2.21 | W 2.44
E14: A 2.5 | C 2.57 | D 2.23 | F 2.11 | G 2.42 | H 2.52 | I 2.77 | K 2.97 | L 2.38 | M 2.58 | N 2.7 | P 2.93 | Q 2.54 | R 2.6 | S 2.69 | T 2.44 | V 2.84 | W 2.59 | Y 2.39
C15: A 3.02 | D 3.51 | E 3.35 | F 3.02 | G 3.7 | H 3.33 | I 2.55 | K 3.42 | L 3.11 | M 2.98 | N 3.44 | P 3.4 | Q 3.91 | R 3.53 | S 3.02 | T 2.88 | V 2.85 | W 3.07 | Y 3.07
T16: A 2.12 | C 2.09
